Assay results taken from the supplement of paper PMC9170038.

Test system: MS2 coat protein
Experiment: apparent KD of MS2 coat protein; designed switch direction (-1 OFF switch, 1 ON switch): -1; higher = weaker reporter binding
Outline: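 RNA switches sharing common flanks were transcribed by stalled E. coli RNA polymerase on Illumina chips. A doubling series of SNAP-549-labelled MS2 coat protein, from 0.7 or 1.5 nM to 3 µM, was applied in Tris-HCl pH 7.5 buffer with KCl, MgCl2, BSA, DTT, tRNA and Tween-20. Each step lasted 0.8–1.5 h at the bottom of the series and 10–20 min at the top. Normalised cluster fluorescence was curve-fitted, giving apparent KD as the per-design median over clusters.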

[1] = Eterna round: R95, input ligand: microRNA oligo, concentration not stated
[2] = Eterna round: R95, input ligand: FMN 200 uM
[3] = Eterna round: R95, input ligand: none
[4] = input ligand: microRNA oligo, concentration not stated

Sequence	apparent KD of MS2 coat protein [1] [nM]	apparent KD of MS2 coat protein [2] [nM]	apparent KD of MS2 coat protein [3] [nM]	apparent KD of MS2 coat protein (input ligand: FMN 200 uM) [nM]	apparent KD of MS2 coat protein [4] [nM]	apparent KD of MS2 coat protein (input ligand: none) [nM]
GGGAAGUGAGGAUAUAUGAGAGAGGCUGAACCGGACGAGAAGUAGAAGGCACAUGAGGAUCACCCAUGUAGGGA [JR_Exclu4_Sub025] (puzzle: Exclusion 4)	128	–	–	–	–	–
GGGAAGUGAGGAUAUAUGAGAGAGGCUGGACCGGAUGAGAAGUAGAAGGCACAUGAGGAUCACCCAUGUAGGGA [JR_Exclu4_Sub026] (puzzle: Exclusion 4)	152	130	209	–	–	–
GGGAGAGAGUGAGGAUAUCAAAGAACAUGAGGAUCACCCAUGUAACCUCAUGUAAGAAGAAGAAGUGAGAAGGCACAGGAGGGU [Default title] (Eterna round: R96, puzzle: Exclusion NG 2)	–	–	–	463	256	628
GGGAGGAGAGUGAGGAUAUUCGAGGGAGGGAGGGUGAAGAAGGCACAUGAGGAUCACCCAUGUGGUGGGAGGUU [RHig 1] (Eterna round: R97, puzzle: Brourd's mod of Exclusion 4)	–	–	–	23.9	–	38.3
GGGAUGUCAGGAUAUCCAAAAGUCCGCCAGUACGGCAGACAGGAGAAGGGACAUGAGGAUCACCCAUGUAAAGA [Leinrete] (puzzle: Exclusion 4)	32.6	89	38.3	–	–	–
GGGCCCGGAGGAUAUACAAUUCUGGGCUGAAAGGCUCGGGUACAUGAGGAUCACCCAUGUAGAAGGCCGGGCCC [-37.6, -34.7 kcal A 24%, 7bis-0] (Eterna round: R97, puzzle: Exclusion 2)	–	–	–	33.4	–	14.9
GGGCCCGGUGUGAGGAUAUGUGAUCGGAAAUGAUCGUAGAAGGCACAUGAGGAUCACCCAUGUAAGCCGGGCCC [-31.3, -29.2 kcal, A 26%, 2-0] (Eterna round: R97, puzzle: Brourd's mod of Exclusion 4)	–	–	–	34.2	–	289
GGGCCCGGUGUGAGGAUAUUGGGCCCGAAAGGGCCCGAGAAGGCACAUGAGGAUCACCCAUGUAAGCCGGGCCC [-46.5, -44.5 kcal, A 23%, 5c-0] (Eterna round: R97, puzzle: Brourd's mod of Exclusion 4)	–	–	–	15.8	–	14.9
GGGCUCGGAGGAUAUACAAUGGGCUCGGGAAAUCGGGCUCUACAUGAGGAUCACCCAUGUAGAAGGUCGGGCUC [-38.9, -35.6 kcal A 24%, 4,4] (Eterna round: R97, puzzle: Exclusion 2)	–	–	–	16.4	–	14.1
GGGCUGCGACGCAGCCAAACAAAACAUGAGGAUCACCCAUGUCAGGAUAUACCGAUGCAGCAUCUGUAGAAGGGACAGAUCCAA [Onlaorre] (Eterna round: R96, puzzle: Exclusion NG 3)	–	–	–	145	63.5	73.3
GGGCUGUCAGGAUAUCCCGGGCCCGGGUAAACCCGGGUUUGGGAGAAGGGACAUGAGGAUCACCCAUGUGGCCC [-39.8, -38.8 kcal, A 20%, 5cbis-0] (Eterna round: R97, puzzle: Exclusion 4)	–	–	–	34.8	–	34.1
GGGCUGUCAGGAUAUUCGAGUUCGAGUGAAAGCUUGAGCUUGAAGAAGGGACAUGAGGAUCACCCAUGUGGCCC [-32.1, -31.1 kcal, A 26%, 1bis-0] (Eterna round: R97, puzzle: Exclusion 4)	–	–	–	30.5	–	31.9
GGGUGACAGUUAGGAUAUCUUAGCACGCCGUAGAGAGAAGGAACAUGAGGAUCACCCAUGUUGUAGUGCCUCCGGCACUGCUAG [Zaquata] (Eterna round: R96, puzzle: Exclusion NG 1)	–	–	–	59.2	30.1	43.5
GGGUGACAUGAGGAUCACCCAUGUCAGGAUAUGAUACUAUGUACUUCGGUACAUAGUAUCAGAAGGGACAUAAA [Ex1-3: 15] (puzzle: Exclusion 1)	103	–	–	–	–	–
GGGUGCAGGCUGAGAUCCUACAUGAGGAUCACCCAUGUGGUCCGGUGACGUGAGUCACCGGACUUAGCUCGUCUUGU [salish99_S_TOV1_R5_007] (Eterna round: R97, puzzle: Sensor, turn-off variant 1)	–	–	–	162	–	192
GGGUGCAGGCUGCGGUCCUACAUGAGGAUCACCCAUGUGGUCCGGUGGCGUGGGUCGCCGGACUUGGCUCGUCUUGU [salish99_S_TOV1_R5_014] (Eterna round: R97, puzzle: Sensor, turn-off variant 1)	–	–	–	91.2	–	99.3

Sequence	apparent KD of MS2 coat protein [1] [nM]	apparent KD of MS2 coat protein [2] [nM]	apparent KD of MS2 coat protein [3] [nM]	apparent KD of MS2 coat protein (input ligand: FMN 200 uM) [nM]	apparent KD of MS2 coat protein [4] [nM]	apparent KD of MS2 coat protein (input ligand: none) [nM]
GGGUGCGAGCUAAGAUCCUACAUGAGGAUCACCCAUGUGGUCCGGUGACGUGAGUCACCGGACUUAGCUCGUCUUGU [salish99_S_TOV1_R5_005] (Eterna round: R97, puzzle: Sensor, turn-off variant 1)	–	–	–	26.3	–	29.2
GGUAAAGGCCGAGGAUAUCGGAAAGGAAGUGUACGAGAAGGCGGCAAAAGAACAUGAGGAUCACCCAUGUGGGCCGAUCUUCCG [16th something] (Eterna round: R96, puzzle: Exclusion NG 1)	–	–	–	23.6	16.8	18
GGUAAGCUAGGAUAUGCUUUGGGAAAGCAUUCCUUCGAUAAACUUGAGGAUCACCCAAGUAGAAGGAGCUUCCC [salish99_ex2_r4_017] (Eterna round: R97, puzzle: Exclusion 2)	–	–	–	11.2	–	11
GGUACUAACACGAAAGUGUUAGUACUAUAAGCUUGUGUUACAUGAGGAUCACCCAUGUCCUCAUAAGCUCGUCUUAU [JL-sv3-2.16 mat747 mod] (puzzle: Sensor v3, turn-off variant 2)	19.6	86.7	108	–	–	–
GGUACUAACACGAUAGUGUUAGUACUAUAAGCUUGUGUUACAUGAGGAUCACCCAUGUCCUCAUAGGCUCGUCUUAU [Mat - Sensor v3 - Turn-off var 2 - D86] (puzzle: Sensor v3, turn-off variant 2)	30.8	169	166	–	–	–
GGUACUAUCACCUGAGUGGUAGUGCCACAAGCUUGUGAUACAUGAGGAUCACCCAUGUCCUCAUUUGCUCGUCUUAU [JL-sv3-2.28 JL mod] (puzzle: Sensor v3, turn-off variant 2)	1080	289	343	–	–	–
GGUACUCAAAGAGUACCAAUACGAACAUGAGGAUCACCCAUGUAGGAUAUGCUACUCAAAGAGUAGCAGAAGGACAUGAACCCU [Far Half Aptamer v7] (Eterna round: R96, puzzle: Exclusion NG 3)	–	–	–	571	38.3	61.8
GGUAGAGUGGUAGGAUAUCCGACUGAAACAGACGGAGAAGGACCACAGUCACUGGGUCCACUUAUAAUUAACAAUAAAUCUACC [pwkr exNG1 F6.2] (Eterna round: R96, puzzle: Exclusion NG 1)	–	–	–	326	120	263
GGUAGAGUGGUAGGAUAUCCGUCUGUUUCAGUCGGAGAAGGACCACAGUCACUGGGUCCUAAUAUCAUGGAGACCUGAUCUACC [pwkr exNG1 F6.12] (Eterna round: R96, puzzle: Exclusion NG 1)	–	–	–	2200	316	284
GGUAGGUGUGACUUGGGUGACAUGAGGAUCACCCAUGUCACAAGCUUGUUGCUCGCCUUGUAAUUAACCCAUGUCAC [LRO Sensor-off var1-29 mod of Stov1-13-A1 by Brourd] (Eterna round: R97, puzzle: Sensor, turn-off variant 1)	–	–	–	21.5	–	21.5
GGUAUACAUGAGGAUCACCCAUGUCAGGAUAUGGUAUCCUGUGCCGAAAGGCACAGGUCCAGAAGGGACGAUAG [AK-MS2ROC-r4-exclusion1-5.2] (Eterna round: R97, puzzle: Exclusion 1)	–	–	–	109	–	91.7
GGUAUGGCCACAGGAUAUUGAGCCACAUGAGGAUCACCCAUGUGAGGACGUAGAAUCGCCUGGCCCAAGAAGGGUGAAGCCCAU [Eternabot solution 4] (Eterna round: R96, puzzle: Exclusion NG 2)	–	–	–	17.1	13.1	28
GGUCAAGAACAGAACCGCGCUGCCAUUGACCGCUCAUUUACAUGAGGAUCACCCAUGUUUUUUGCUUGUCUUGUUAC [Beusdieson] (puzzle: Sensor v3, turn-off variant 2)	89.9	16.2	18.7	–	–	–
GGUCAAGAACAGCUCCGCGCUGCCCUCGACCGCUCAUUUACAUGAGGAUCACCCAUGUUUUUUGCUUGUCUUGUUAC [Usvetive] (puzzle: Sensor v3, turn-off variant 2)	91.8	16.9	16.5	–	–	–
GGUCAAGAGCAGCUCCGCGCUGCCAUUGACCGCUCAUUUACAUGAGGAUCACCCAUGUUUUUUGCUCGUCUUAUUAC [Somabi] (puzzle: Sensor v3, turn-off variant 2)	53.2	18.5	18.8	–	–	–
GGUCAGACGGUAGGAUAUCCAUAUCGAGUGACCCUUUCAUAACAUGAGGAUCACCCAUGUCGGUGGGAGAAGGGCCGUACGGCG [salish99_ExNG02_R04_001] (Eterna round: R96, puzzle: Exclusion NG 2)	–	–	–	146	70.4	63.2
